What was measured:
HveC(346t) (human) [1] = biological target: HveC(346t) (human) (UniProt Q15223); assay: SPR (Biacore X)
HveC(143t) (human) [2] = biological target: HveC(143t) (human) (UniProt Q15223); assay: gel filtration, from the size of the complex
HveC(245t) (human) = HveC(245t) (human) (UniProt Q15223); assay: gel filtration, from the size of the complex
HveC(346t) (human) [3] = biological target: HveC(346t) (human) (UniProt Q15223); assay: gel filtration, from the size of the complex
HveC(143t) (human) [4] = biological target: HveC(143t) (human) (UniProt Q15223); assay: silver-stained PAGE of the complex fraction against standards
HveC(346t) (human) [5] = biological target: HveC(346t) (human) (UniProt Q15223); assay: silver-stained gel analysis of the complex formed in excess gD(285t)
HveC(143t) (human) [6] = biological target: HveC(143t) (human) (UniProt Q15223); assay: SPR (Biacore X), HveC(143t) amine-coupled to the chip, gD in flow, KD = koff/kon
HveC(346t) (human) [7] = biological target: HveC(346t) (human) (UniProt Q15223); assay: SPR (Biacore X), HveC(346t) amine-coupled to the chip, gD in flow, KD = koff/kon
HveC(143t) (human) [8] = biological target: HveC(143t) (human) (UniProt Q15223); assay: SPR (Biacore X), HveC(143t) amine-coupled to the chip, gD in flow, 1:1 Langmuir global fit
HveC(346t) (human) [9] = biological target: HveC(346t) (human) (UniProt Q15223); assay: SPR (Biacore X), HveC(346t) amine-coupled to the chip, gD in flow, 1:1 Langmuir global fit
HveA(200t) (human) [10] = biological target: HveA(200t) (human) (UniProt Q92956); assay: ELISA, HveAt on the plate
Sequence of UniProt Q92956 (Q92956 39-202): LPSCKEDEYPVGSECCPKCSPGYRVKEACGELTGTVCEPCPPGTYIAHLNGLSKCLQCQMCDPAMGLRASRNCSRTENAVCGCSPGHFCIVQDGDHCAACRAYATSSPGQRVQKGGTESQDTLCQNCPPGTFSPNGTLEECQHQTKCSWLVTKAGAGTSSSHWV

HveC(346t) (human) [11] = biological target: HveC(346t) (human) (UniProt Q15223); assay: ELISA, HveCt on the plate
HveA(200t) (human) [12] = biological target: HveA(200t) (human) (UniProt Q92956); assay: ELISA, apparent affinity from half-maximal binding, HveAt on the plate
HveC(346t) (human) [13] = biological target: HveC(346t) (human) (UniProt Q15223); assay: ELISA, apparent affinity from half-maximal binding, HveCt on the plate
HveC(346t) (human) [14] = biological target: HveC(346t) (human) (UniProt Q15223); assay: gel filtration
HveC(346t) (human) [15] = biological target: HveC(346t) (human) (UniProt Q15223); assay: gel filtration at various molar ratios
HveC(346t) (human) [16] = biological target: HveC(346t) (human) (UniProt Q15223); assay: silver-stained SDS-PAGE of the complex fraction

| Substance | Kd (HveC(143t) (human) [6]) [nM] | Kd (HveC(346t) (human) [7]) [nM] | koff (HveC(143t) (human) [8]) [s⁻¹] | kon (HveC(143t) (human) [8]) [M⁻¹ s⁻¹] | koff (HveC(346t) (human) [9]) [s⁻¹] | kon (HveC(346t) (human) [9]) [M⁻¹ s⁻¹] | further results |
| --- | --- | --- | --- | --- | --- | --- | --- |
| gD(285t) (ligand) | 35 | 38 | 0.013 | 370000 | 0.0073 | 190000 | fold increase in affinity over gD(306t) (HveC(346t) (human) [1]): > 80 fold; stoichiometry (gD:HveC) (HveC(143t) (human) [2]): 1 gD per HveC; stoichiometry (gD:HveC) (HveC(245t) (human)): 1 gD per HveC; stoichiometry (gD:HveC) (HveC(346t) (human) [3]): 2 gD per HveC; ratio in the complex (HveC(143t) per gD(285t)) (HveC(143t) (human) [4]): 1; ratio in the complex (HveC(346t) (human) [5]): 2 gD per HveC |
| gD(306t)rid1 (ligand) | 200 | 170 | 0.008 | 39000 | 0.0047 | 27000 | fold increase in affinity compared to gD(306t) (HveC(346t) (human) [1]): 20 fold |
| gD-1(306t) KOS (ligand) | 1200 | 3200 | 0.011 | 9000 | 0.007 | 2200 | gD concentration at saturation (HveA(200t) (human) [10]): 2 to 3 µM; gD concentration at saturation (µM (printed RM)) (HveC(346t) (human) [11]): 10 to 20; Kd (HveA(200t) (human) [12]): 300 nM; Kd (HveC(346t) (human) [13]): 1000 nM |
| gD-1(A290-299t) (ligand) | – | – | – | – | – | – | stoichiometry (gD:HveC) (HveC(346t) (human) [14]): 2 gD per HveC; fold increase in binding compared to wild type gD(306t) (HveA(200t) (human) [10]): 100 fold; fold increase in binding compared to wild type gD(306t) (HveC(346t) (human) [11]): 100 fold; stoichiometry (gD:HveCt) (HveC(346t) (human) [15]): 2 gD per HveCt; gD:HveCt ratio in the complex (HveC(346t) (human) [16]): 1.6 gD per HveCt |
